Source: FireProtDB (doi:10.1021/bi951726o)

Conditions: Escherichia coli (strain K12), pH 7.8, Urea, NMR, Potassium phosphate 58 mM, reversible: yes, whole UniProt chain shown

B1: Tryptophan synthase alpha chain wild type, P0A877 (protein)
chain: MERYESLFAQLKERKEGAFVPFVTLGDPGIEQSLKIIDTLIEAGADALELGIPFSDPLADGPTIQNATLRAFAAGVTPAQCFEMLALIRQKHPTIPIGLLMYANLVFNKGIDEFYAQCEKVGVDSVLVADVPVEESAPFRQAALRHNVAPIFICPPNADDDLLRQIASYGRGYTYLLSRAGVTGAENRAALPLNHLVAKLKEYNAAPPLQGFGISAPDQVKAAIDAGAAGAISGSAIVKIIEQHINEPEKMLAALKVFVQPMKAATRS
denaturant midpoint (higher = more stable) (5 °C): 4.8 M
unfolding free energy (5 °C): 4.8 kcal/mol
denaturant midpoint (higher = more stable) (10 °C): 4.6 M
unfolding free energy (10 °C): 5.5 kcal/mol
denaturant midpoint (higher = more stable) (15 °C): 4.7 M
unfolding free energy (15 °C): 6.1 kcal/mol
denaturant midpoint (higher = more stable) (20 °C): 5.4 M
unfolding free energy (20 °C): 7.5 kcal/mol
denaturant midpoint (higher = more stable) (25 °C): 5.9 M
unfolding free energy (25 °C): 8.2 kcal/mol
